The nature of one data set: IF staining, 293T. The settings on record: glycan lost; control: GLUT1-WT.
The nature of data set [1]: IF co-staining, Ishikawa cells. The settings on record: glycan changed form; control: shC with GAL9 overexpression.

From publication PMC11672308 come the findings set out here.

B1: GLUT1: N45D (protein)
parent chain: MEPSSKKLTGRLMLAVGGAVLGSLQFGYNTGVINAPQKVIEEFYNQTWVHRYGESILPTTLTTLWSLSVAIFSVGGMIGSFSVGLFVNRFGRRNSMLMMNLLAFVSAVLMGFSKLGKSFEMLILGRFIIGVYCGLTTGFVPMYVGEVSPTALRGALGTLHQLGIVVGILIAQVFGLDSIMGNKDLWPLLLSIIFIPALLQCIVLPFCPESPRFLLINRNEENRAKSVLKKLRGTADVTHDLQEMKEESRQMMREKKVTILELFRSPAYRQPILIAVVLQLSQQLSGINAVFYYSTSIFEKAGVQQPVYATIGSGIVNTAFTVVSLFVVERAGRRTLHLIGLAGMAGCAILMTIALALLEQLPWMSYLSIVAIFGFVAFFEVGPGPIPWFIVAELFSQGPRPAAIAVAGFSNWTSNFIVGMCFQYVEQLCGPYVFIIFTVLLVLFFIFTYFKVPETKGRTFDEIASGFRQGGASQSDKTPEELFHPLGADSQV
With B1, the localisation_or_trafficking result in “IF staining, 293T” was “decreases”.

B2: GLUT1: MGAT4A knockdown (protein)
parent chain: B1 parent chain
Regarding B2, the localisation_or_trafficking entry in data set [1] is reported as “decreases”.
